{"source": "patent US20200270365A1", "about": "(JIANGSU HENGRUI MEDICINE, published 2020)", "key": {"[1]": {"biological_target": "T1, PCSK9-D374Y mutant protein with His-tag: PCSK9-D374Y-His6 (human, UniProt Q8NBP7 153-692; A8T644 31-152)", "T1 construct": "also called PCSK9-Y; PCSK9-Y antigen", "assay": "SPR Biacore X100, antibody captured by anti-Fc pAb on CM5, PCSK9-Y mobile phase", "method": "(§1) Different back mutations were selected for combination (Table 3) after CDR grafting. The designed humanized sequences were fully-gene synthesized and heavy and light chains were combined with each other for mammalian expression (Table 4). After purification of the protein, the blocking activity test was performed similarly to that for chimeric antibodies (see test 3 and 4 for the method and the results are shown in Table 5). Some cloned proteins were selected and were determined for dissociation constants by Surface Plasmon resonance (SPR) (Biacore X100, GE, see test 5). The sample to be tested was captured by the Amine-Coupling Anti-Fc pAb (GE) on the CM5 chip (GE). PCSK9 (SEQ ID NO: 1) or PCSK9-Y (SEQ ID NO: 4) was the mobile phase, working buffer was 1×HBS-EP⁺, pH 7.4, regeneration bu0ffer was 3 M MgCl₂."}, "[2]": {"biological_target": "T2, PCSK9 protein inserted with biotin receiving peptide BP15 and His-tag: PCSK9-BP15-His6 (human, UniProt Q8NBP7 153-692; A8T644 31-152, biotin on the BP15 biotin receiving peptide (labeled during the expression))", "T2 construct": "also called WT PCSK9; PCSK9 WT", "assay": "ELISA, biotin PCSK9 on streptavidin plate", "method": "The binding ability of anti-PCSK9 antibodies of the present invention to PCSK9 protein (WT PCSK9, SEQ ID NO: 5) was detected by measuring the amounts of antibodies binding to PCSK9 immobilized on the ELISA plate.\n(§2) Streptavidin (sigma, CAT #S4762) was diluted to 2 μg/ml with PBS and was added into a 96-well ELISA plate, at 4° C. for overnight. The plate was washed and then was blocked with Tris buffer (including 0.9 mM CaCl₂, 0.05% Tween 20 and 5% skim milk) at 37° C. for 2 hours. Then the plate was washed again and 100 μl/well of biotin-labeled PCSK9 (produced in-house, diluted with Tris buffer containing 0.9 mM CaCl₂, 0.05% Tween 20 and 1% skim milk) was added and incubated at 37° C. for 1 hour. After the wash step various concentrations of diluted PCSK9 antibody samples was added to the plate and incubated at 37° C. for 1 hour. […] Then the plate was washed and tetramethyl brenzidine solution was added for development. Finally, the stop buffer was added and the OD450 value was measured on the Microplate reader, and then EC50 was calculated."}, "[3]": {"biological_target": "T3, PCSK9 with His-tag: PCSK9-His6 (human, UniProt Q8NBP7 153-692; A8T644 31-152)", "T3 construct": "also called huPCSK9; human PCSK9 antigen", "assay": "SPR Biacore X100, antibody captured by anti-Fc pAb on CM5, PCSK9 mobile phase", "method": "as §1"}, "[4]": {"biological_target": "T4, PCSK9 D374Y mutant protein inserted with biotin receiving peptide BP15 and His-tag: PCSK9-D374Y-BP15-His6 (human, UniProt Q8NBP7 153-692; A8T644 31-152, biotin on the BP15 biotin receiving peptide)", "T4 construct": "also called PCSK9-Y; mutant PCSK9", "assay": "ELISA, biotin PCSK9-Y on streptavidin plate", "method": "The binding ability of anti-PCSK9 antibodies of the present invention to PCSK9-Y protein (mutant PCSK9, SEQ ID NO: 6) was detected by measuring the amounts of antibodies binding to PCSK9-Y immobilized on the ELISA plate.\nas §2, with “hours. The” for “hours. Then the”, “washed” for “washed again”, “biotin-labeled PCSK9-Y” for “biotin-labeled PCSK9”, “wash step,” for “wash step”, “samples were” for “samples was”"}, "[5]": {"biological_target": "T4, PCSK9 D374Y mutant protein inserted …", "assay": "competition ELISA, LDLR-FC coated, biotin PCSK9-Y + antibody", "method": "as §1\n(§3) LDLR-FC (produced in-house, with sequence of SEQ ID NO: 8) was diluted to 2 μg/ml with phosphate buffer and was added into the 96-well ELISA plate, at 4° C. overnight. The plate was washed and then blocked with Tris buffer (including 0.9 mM CaCl₂, 0.05% Tween 20 and 5% skim milk) at 37° C. for 2 hours. […] Finally, the stop buffer was added and OD450 value was measured on the Microplate reader, then IC50 value was calculated."}, "[6]": {"biological_target": "T2, PCSK9 protein inserted with biotin …", "assay": "competition ELISA, LDLR-FC coated, biotin PCSK9 + antibody", "method": "as §1\nas §3, with “LDLR-FC” for “LDLR-FC (produced in-house, with sequence of SEQ ID NO: 8)”, “to 5” for “to 2”, “plate, kept” for “plate,”"}, "[7]": {"biological_target": "T2, PCSK9 protein inserted with biotin …", "assay": "competition ELISA, LDLR-FC coated, biotin PCSK9 + antibody", "method": "The blocking ability of PCSK9 antibodies according to the present invention for the binding of LDLR-FC (produced in-house, with sequence of SEQ ID NO: 8) and PCSK9 (SEQ ID NO: 5) was tested by measuring the amount of PCSK9 binding to LDLR in the presence of the antibodies.\n(§4) LDLR-FC was diluted to 5 μg/ml with phosphate buffer and was added into the 96-well ELISA plate, kept at 4° C. overnight. The plate was washed and then blocked with Tris buffer (including 0.9 mM CaCl₂, 0.05% Tween 20 and 5% skim milk) at 37° C. for 2 hours. Then the plate was washed and 100 μl/well of mixture of biotin-labeled PCSK9 (diluted to 2 μg/ml with Tris buffer containing 0.9 mM CaCl₂, 0.05% Tween 20 and 1% skim milk) and antibody samples (diluted with Tris buffer containing 0.9 mM CaCl₂, 0.05% Tween 20 and 1% skim milk) was added and incubated at 37° C. for 1 hour. Then the plate was washed again and horseradish peroxidase-streptavidin (sigma, CAT #S2438) was added and incubated at 37° C. for 1 hour. Then the plate was washed and tetramethyl brenzidine solution was added for development. Finally, the stop buffer was added and OD450 value was measured on the Microplate reader, then IC50 value was calculated.", "remark": "listed apart in the source"}, "[8]": {"biological_target": "T4, PCSK9 D374Y mutant protein inserted …", "assay": "competition ELISA, LDLR-FC coated, biotin PCSK9-Y + antibody", "method": "The blocking ability of PCSK9 antibodies according to the present invention for the binding of LDLR-FC and PCSK9-Y (mutant PCSK9, SEQ ID NO: 6) was tested by measuring the amount of PCSK9-Y binding to LDLR in the presence of the antibodies.\nas §4, with “LDLR-FC (produced in-house, with sequence of SEQ ID NO: 8)” for “LDLR-FC”, “to 2” for “to 5”, “plate,” for “plate, kept”, “biotin-labeled mutant” for “biotin-labeled”, “to 1” for “to 2”", "remark": "listed apart in the source"}}, "note": "Where two headings read alike, the source gives them in different places.", "data": [{"binder": "humanized antibody h011-3 (antibody, V domains shown, h011_VH.1 with h011_VL.1B) VH: QVQLVQSGAEVKKPGASVKVSCKASGYTFTGYTIHWVRQAPGQGLEWMGYINPSSTYTKFNQKFKDRVTMTRDTSISTAYMELSRLRSDDTAVYYCARERIYSNYWFFDVWGQGTTVTVSS VL: DIVMTQSPSSLSASVGDRVTITCKASQNVYTAVAWYQQKPGKSPKLLIYSASNRYTGVPSRFSGSGSGTDFTLTISSLQPEDFATYFCQQYSSYPYTFGGGTKVEIK", "values": [{"measurement": "Kd", "setting": "[1]", "result": 34.5, "unit": "nM"}, {"measurement": "koff", "setting": "[1]", "result": 0.00578, "unit": "s⁻¹"}, {"measurement": "kon", "setting": "[1]", "result": 168000, "unit": "M⁻¹ s⁻¹"}, {"measurement": "EC50", "setting": "[2]", "result": 0.00719, "unit": "µg/mL"}, {"measurement": "Kd", "setting": "[3]", "result": 0.263, "unit": "nM"}, {"measurement": "koff", "setting": "[3]", "result": "1.88e-05", "unit": "s⁻¹"}, {"measurement": "kon", "setting": "[3]", "result": 71300, "unit": "M⁻¹ s⁻¹"}, {"measurement": "EC50", "setting": "[4]", "result": 1.78, "unit": "µg/mL"}, {"measurement": "IC50", "setting": "[5]", "result": 5.13, "unit": "µg/mL"}, {"measurement": "IC50", "setting": "[6]", "result": 0.205, "unit": "µg/mL"}, {"measurement": "IC50", "setting": "[7]", "result": 0.681, "unit": "µg/mL"}, {"measurement": "IC50", "setting": "[8]", "result": 5.49, "unit": "µg/mL"}]}]}
